Ends that are not written are not given here.
Experiments:
[1] = target: T1, fibrinogen hole 'a' and hole 'b' (Homo sapiens, UniProt P02675+P02679); settings: cited from earlier work
T1 sequence (P02679 27-433 limits assumed): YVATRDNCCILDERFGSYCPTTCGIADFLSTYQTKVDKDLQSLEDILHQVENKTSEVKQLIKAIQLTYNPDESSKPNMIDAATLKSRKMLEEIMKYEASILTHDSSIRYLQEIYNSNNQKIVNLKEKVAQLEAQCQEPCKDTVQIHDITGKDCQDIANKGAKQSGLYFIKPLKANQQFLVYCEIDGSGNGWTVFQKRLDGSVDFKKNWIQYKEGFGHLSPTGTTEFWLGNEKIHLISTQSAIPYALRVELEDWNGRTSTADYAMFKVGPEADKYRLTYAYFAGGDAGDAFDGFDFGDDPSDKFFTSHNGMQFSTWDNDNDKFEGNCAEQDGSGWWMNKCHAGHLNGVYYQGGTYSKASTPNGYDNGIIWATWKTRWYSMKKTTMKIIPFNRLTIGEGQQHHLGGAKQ
T1 sequence (P02675 31-491): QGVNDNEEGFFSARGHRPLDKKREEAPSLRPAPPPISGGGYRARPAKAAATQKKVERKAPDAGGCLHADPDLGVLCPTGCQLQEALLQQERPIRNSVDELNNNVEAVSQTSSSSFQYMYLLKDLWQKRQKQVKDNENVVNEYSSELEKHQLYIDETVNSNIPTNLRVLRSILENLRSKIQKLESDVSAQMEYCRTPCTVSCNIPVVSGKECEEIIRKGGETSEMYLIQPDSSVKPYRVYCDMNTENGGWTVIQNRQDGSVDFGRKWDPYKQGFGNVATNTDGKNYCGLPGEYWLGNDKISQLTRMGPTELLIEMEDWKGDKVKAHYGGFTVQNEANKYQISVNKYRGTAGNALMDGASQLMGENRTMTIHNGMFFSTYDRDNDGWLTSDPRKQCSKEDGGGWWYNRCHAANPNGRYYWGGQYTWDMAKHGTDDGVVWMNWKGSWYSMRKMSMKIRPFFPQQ
T1 sequence (P02671 20-629 partner limits assumed): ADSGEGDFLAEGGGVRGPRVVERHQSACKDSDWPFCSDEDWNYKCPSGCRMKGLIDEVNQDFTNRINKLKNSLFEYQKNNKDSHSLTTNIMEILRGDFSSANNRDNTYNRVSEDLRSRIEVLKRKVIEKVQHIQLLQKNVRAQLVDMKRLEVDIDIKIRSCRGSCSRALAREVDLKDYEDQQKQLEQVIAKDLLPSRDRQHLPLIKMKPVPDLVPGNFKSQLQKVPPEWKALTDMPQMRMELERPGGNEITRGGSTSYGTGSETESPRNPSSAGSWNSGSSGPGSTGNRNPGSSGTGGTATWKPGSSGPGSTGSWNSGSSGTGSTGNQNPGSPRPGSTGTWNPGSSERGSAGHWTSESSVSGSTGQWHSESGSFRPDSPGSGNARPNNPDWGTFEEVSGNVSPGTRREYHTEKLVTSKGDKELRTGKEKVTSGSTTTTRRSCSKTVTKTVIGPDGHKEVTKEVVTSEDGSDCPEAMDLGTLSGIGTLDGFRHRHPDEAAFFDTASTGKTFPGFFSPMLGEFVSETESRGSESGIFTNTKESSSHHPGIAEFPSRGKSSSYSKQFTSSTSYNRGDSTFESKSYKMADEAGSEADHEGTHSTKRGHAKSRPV

[2] = target: T2, purified human fibrinogen (Homo sapiens, UniProt P02675+P02679); assay: Polymerisation (clotting) of purified fibrinogen, Sigma Amelung KC4 Delta coagulation analyser; assay type: biochemical; settings: conjugate 2 mg/ml, dendrimer 0.025-0.5 mg/ml
T2 sequence (P02679 27-433 limits assumed): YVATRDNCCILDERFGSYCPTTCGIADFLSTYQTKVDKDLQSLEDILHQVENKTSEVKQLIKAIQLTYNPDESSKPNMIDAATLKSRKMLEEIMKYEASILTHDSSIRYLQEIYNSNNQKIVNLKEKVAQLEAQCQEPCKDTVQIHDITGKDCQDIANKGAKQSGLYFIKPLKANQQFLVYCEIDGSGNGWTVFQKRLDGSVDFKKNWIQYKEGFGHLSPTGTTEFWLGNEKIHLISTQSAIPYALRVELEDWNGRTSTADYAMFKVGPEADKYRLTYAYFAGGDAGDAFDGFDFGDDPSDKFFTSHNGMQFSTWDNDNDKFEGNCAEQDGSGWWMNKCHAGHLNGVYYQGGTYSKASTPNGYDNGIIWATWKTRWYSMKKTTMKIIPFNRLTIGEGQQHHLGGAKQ
T2 sequence (P02675 31-491): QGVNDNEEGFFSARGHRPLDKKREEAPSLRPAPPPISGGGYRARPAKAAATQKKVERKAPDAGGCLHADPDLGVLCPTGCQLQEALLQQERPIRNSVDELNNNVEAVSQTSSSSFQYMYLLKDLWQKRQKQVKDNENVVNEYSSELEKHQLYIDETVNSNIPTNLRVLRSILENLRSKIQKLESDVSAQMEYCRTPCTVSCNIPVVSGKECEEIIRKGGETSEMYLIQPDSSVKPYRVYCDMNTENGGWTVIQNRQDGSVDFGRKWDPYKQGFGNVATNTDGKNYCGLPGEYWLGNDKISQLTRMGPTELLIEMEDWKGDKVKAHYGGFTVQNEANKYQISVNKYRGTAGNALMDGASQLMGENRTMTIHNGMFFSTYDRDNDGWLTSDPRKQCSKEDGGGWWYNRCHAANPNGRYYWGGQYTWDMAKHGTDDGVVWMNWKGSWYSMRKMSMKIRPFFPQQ
T2 sequence (P02671 20-629 partner limits assumed): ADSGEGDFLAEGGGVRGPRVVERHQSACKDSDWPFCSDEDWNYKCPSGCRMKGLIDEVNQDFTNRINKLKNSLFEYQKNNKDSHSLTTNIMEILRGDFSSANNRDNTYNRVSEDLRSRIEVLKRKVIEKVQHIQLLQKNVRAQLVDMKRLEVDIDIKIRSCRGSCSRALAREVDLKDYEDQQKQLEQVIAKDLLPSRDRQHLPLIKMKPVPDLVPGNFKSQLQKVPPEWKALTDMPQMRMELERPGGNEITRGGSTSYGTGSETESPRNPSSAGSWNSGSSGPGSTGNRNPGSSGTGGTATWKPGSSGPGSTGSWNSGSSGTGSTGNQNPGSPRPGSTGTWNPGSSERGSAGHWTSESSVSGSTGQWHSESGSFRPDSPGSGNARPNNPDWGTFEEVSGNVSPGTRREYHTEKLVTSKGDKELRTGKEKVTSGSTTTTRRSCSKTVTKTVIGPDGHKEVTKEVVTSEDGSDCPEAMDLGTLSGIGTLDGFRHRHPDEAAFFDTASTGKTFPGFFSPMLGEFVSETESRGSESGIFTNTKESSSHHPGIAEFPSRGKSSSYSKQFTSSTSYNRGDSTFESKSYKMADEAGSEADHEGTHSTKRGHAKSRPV
Method: The ability of Peptide Dendrimer No. 12 to polymerise fibrinogen was assessed. 30 μl of dendrimer in solution, at concentration ranging from 0.005-2 mg/ml, was added to 100 μl purified human fibrinogen at 3 mg/ml (the level of fibrinogen found in the blood). Polymerisation of fibrinogen was analysed using a Sigma Amelung KC4 Delta coagulation analyser.
The concentration of each dendrimer was varied from 0.005-0.5 mg/ml.

Row | Substance | binding preference for hole 'a' / hole 'b' of fibrinogen [1] | activity of mixtures of peptide conjugate (2 mg/ml) with Peptide Dendrimer No. 3 or 4 in copolymerising with fibrinogen [2]
1 | GPRPG (listed as Homo sapiens) | binds to hole ‘a’ and hole ‘b’ of fibrinogen, but with some preference for hole ‘a’ | –
2 | Peptide Conjugate No. 1 (peptide 1 GPRP; peptide 2 GPRP; also: peptide conjugate of two chains, linkage not given here) | – | not active
